Laboratory results taken from publication PMC4990988, “Defective recognition of LC3B by mutant SQSTM1/p62 implicates impairment of autophagy as a pathogenic mechanism in ALS-FTLD” (Autophagy, 2016).

Target: LC3B (microtubule-associated protein 1 light chain 3 β) (human, UniProt Q9GZQ8 1-120)
Assay: ITC; LIR peptide stock (350 µM) injected into LC3B in the cell, 298 K, 25 mM phosphate buffer, 150 mM NaCl, pH 7.5; one-site binding model
Settings: both partners purified

Binder | Kd [µM]
SGGDDDWTHLSSKEVDPSTG (source: synthetic peptide (PeptideSynthetics, purity > 98%)) [WT LIR peptide (residues 332 to 351 of human SQSTM1)] | 3.2 ± 1.1
SGGDDDWTHVSSKEVDPSTG (SQSTM1/p62, human, residues 332 to 351 with the ALS-associated L341V mutation; also called L341V-mutant LIR; mutant LIR; source: synthetic peptide (PeptideSynthetics, purity > 98%)) [LIR (L341V) peptide (residues 332 to 351 of human SQSTM1 with L341V)] | 10.9 ± 1.1
